Results on two molecules are retold here after patent US20160200782A1 (MOERAE MATRIX, published 2016).

Targets include PKCτ(h) (human); CDK7/cyclinH/MAT1(h) (human, UniProt P50613 1-346; P51946 1-323; P51948 1-309); Ab1(H396P)(h) (human, UniProt P00519 27-1130, limits assumed).
Test in all cases: cell-based or functional assay
In the next assay the target is T1, GRK7(h) (human, UniProt Q8WTQ7 1-553, limits assumed).
T1 sequence (looked up): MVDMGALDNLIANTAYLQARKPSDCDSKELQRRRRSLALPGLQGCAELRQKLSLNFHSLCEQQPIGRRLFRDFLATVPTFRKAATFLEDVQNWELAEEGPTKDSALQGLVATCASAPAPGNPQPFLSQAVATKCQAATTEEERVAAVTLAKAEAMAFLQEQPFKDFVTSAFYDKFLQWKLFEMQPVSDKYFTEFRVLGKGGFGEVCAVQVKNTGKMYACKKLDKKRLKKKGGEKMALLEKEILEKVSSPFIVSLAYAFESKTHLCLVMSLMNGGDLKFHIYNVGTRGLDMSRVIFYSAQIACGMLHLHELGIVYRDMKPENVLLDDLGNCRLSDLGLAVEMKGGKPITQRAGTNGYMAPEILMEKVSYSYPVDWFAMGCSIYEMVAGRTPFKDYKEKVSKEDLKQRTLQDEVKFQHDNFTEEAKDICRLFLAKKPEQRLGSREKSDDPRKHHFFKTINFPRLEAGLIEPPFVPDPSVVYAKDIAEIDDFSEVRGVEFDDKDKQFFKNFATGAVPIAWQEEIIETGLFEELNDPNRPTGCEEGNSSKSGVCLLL

The next assay deals with T2, Itk(h) (human, UniProt Q08881 1-620, limits assumed).
T2 sequence (looked up): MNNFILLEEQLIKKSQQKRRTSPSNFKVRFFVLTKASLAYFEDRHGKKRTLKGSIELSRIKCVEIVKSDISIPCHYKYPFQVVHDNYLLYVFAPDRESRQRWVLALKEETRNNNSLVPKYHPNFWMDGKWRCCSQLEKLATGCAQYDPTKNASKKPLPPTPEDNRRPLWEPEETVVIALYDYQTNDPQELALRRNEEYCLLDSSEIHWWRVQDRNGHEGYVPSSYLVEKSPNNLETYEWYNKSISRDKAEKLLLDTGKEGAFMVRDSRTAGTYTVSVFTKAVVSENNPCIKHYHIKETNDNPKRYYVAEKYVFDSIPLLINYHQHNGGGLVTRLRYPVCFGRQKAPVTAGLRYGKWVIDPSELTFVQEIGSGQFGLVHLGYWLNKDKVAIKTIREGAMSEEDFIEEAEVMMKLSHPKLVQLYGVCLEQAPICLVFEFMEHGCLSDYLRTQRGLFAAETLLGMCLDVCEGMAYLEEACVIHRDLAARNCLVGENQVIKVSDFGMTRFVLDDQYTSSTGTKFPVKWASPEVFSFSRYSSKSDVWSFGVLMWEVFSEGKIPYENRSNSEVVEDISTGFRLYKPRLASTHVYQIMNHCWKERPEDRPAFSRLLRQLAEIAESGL

Another assay has as its target T3, TSSK2(h) (human, UniProt Q96PF2 1-358).
T3 sequence (looked up): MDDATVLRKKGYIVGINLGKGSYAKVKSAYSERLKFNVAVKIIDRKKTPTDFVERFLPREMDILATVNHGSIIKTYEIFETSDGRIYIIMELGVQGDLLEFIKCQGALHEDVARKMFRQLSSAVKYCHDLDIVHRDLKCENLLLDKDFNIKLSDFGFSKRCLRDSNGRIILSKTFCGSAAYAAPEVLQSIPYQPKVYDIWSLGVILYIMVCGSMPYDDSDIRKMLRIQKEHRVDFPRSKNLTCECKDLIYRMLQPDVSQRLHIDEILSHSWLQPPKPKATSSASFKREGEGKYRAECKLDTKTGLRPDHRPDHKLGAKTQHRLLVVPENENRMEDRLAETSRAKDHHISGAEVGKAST

Another assay concerns the target T4, EphA1(h) (human, UniProt P21709 569-976, limits assumed).
T4 sequence (looked up): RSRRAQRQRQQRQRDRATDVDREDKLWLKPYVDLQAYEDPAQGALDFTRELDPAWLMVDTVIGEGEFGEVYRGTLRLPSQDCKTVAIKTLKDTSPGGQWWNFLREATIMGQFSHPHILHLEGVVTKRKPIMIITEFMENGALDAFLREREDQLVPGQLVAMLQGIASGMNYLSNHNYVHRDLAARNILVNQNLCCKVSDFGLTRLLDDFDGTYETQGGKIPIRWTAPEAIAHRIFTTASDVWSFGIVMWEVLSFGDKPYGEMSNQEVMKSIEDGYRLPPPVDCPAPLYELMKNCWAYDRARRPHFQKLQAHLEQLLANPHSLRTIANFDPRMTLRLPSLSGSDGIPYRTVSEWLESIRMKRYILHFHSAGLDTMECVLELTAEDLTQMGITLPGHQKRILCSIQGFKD

For another assay, the target named is T5, EphA4(h) (human, UniProt P54764 570-986, limits assumed).
T5 sequence (looked up): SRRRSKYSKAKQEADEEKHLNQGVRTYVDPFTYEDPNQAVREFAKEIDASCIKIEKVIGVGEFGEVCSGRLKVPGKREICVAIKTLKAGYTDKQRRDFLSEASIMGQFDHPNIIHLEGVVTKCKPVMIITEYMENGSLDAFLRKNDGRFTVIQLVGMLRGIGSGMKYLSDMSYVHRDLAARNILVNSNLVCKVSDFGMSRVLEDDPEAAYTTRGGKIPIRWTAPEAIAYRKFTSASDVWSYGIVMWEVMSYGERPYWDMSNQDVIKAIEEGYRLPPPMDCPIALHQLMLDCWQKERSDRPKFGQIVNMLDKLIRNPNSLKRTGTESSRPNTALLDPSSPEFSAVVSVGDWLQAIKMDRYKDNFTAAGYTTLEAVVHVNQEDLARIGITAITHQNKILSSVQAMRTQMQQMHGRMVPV
Note: test concentration or dose not given here.

Sequence of CDK7/cyclinH/MAT1(h) (P50613 whole entry, chain 1 of 3): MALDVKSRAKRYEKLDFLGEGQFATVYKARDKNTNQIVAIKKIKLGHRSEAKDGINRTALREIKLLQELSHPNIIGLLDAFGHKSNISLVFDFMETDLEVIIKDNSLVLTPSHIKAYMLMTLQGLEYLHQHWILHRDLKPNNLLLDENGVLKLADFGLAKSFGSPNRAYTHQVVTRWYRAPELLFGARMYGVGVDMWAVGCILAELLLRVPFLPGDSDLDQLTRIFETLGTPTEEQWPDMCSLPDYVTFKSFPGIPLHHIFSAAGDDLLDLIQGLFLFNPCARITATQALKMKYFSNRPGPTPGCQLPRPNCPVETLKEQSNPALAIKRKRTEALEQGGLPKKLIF
Sequence of CDK7/cyclinH/MAT1(h) (P51946 whole entry, chain 2 of 3): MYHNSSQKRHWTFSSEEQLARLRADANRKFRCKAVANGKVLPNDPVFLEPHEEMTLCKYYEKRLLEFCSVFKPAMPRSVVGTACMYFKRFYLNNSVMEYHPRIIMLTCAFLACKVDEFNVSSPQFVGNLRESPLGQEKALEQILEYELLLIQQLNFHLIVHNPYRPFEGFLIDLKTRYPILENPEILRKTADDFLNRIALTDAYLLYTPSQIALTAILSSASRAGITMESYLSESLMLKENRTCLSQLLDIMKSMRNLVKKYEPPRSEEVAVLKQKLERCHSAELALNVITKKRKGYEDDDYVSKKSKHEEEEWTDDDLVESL
Sequence of CDK7/cyclinH/MAT1(h) (P51948 whole entry, chain 3 of 3): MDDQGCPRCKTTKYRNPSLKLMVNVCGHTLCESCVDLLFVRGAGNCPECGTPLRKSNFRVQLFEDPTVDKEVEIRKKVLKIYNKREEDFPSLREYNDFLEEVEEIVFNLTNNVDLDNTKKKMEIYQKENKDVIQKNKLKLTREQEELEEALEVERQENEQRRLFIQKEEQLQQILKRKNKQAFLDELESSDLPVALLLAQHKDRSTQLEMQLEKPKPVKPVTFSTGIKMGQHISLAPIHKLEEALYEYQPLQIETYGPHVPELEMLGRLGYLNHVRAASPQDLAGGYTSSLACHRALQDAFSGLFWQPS
Sequence of Ab1(H396P)(h) (P00519 27-1130 H396P limits assumed): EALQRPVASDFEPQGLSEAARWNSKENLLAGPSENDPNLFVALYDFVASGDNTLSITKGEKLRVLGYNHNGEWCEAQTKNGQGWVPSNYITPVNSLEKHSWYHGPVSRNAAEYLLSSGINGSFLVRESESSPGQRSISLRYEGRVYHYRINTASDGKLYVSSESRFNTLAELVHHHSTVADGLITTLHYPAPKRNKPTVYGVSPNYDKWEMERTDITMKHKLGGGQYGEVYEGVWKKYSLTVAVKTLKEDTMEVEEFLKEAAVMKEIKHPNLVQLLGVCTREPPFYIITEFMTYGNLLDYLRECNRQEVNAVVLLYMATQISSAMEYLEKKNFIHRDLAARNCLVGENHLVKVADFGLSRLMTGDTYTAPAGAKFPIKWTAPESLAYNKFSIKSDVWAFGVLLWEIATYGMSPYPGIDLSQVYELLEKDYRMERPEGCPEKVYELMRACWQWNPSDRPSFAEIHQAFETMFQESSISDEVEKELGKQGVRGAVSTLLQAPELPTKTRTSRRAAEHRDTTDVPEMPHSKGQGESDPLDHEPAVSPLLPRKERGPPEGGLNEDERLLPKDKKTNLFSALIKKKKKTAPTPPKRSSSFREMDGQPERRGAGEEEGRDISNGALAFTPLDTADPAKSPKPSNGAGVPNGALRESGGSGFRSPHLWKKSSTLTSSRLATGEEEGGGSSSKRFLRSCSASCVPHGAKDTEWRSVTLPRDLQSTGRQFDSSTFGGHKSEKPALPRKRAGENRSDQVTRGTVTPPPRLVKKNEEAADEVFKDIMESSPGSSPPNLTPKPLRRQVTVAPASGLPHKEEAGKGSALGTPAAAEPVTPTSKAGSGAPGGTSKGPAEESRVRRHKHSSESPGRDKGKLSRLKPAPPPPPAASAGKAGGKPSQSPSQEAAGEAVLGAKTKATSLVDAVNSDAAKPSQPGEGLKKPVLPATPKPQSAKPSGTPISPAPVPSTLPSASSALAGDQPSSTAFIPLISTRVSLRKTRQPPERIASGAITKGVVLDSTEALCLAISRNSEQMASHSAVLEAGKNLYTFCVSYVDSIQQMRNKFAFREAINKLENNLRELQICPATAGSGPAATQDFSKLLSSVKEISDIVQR

Turning to FAKLAARLYRKALARQLGVAA [MMI-0300], the “% activity” value with GRK7(h) amounted to 122%; with Itk(h), 77%; with PKCτ(h), 68%; with TSSK2(h), 98%; in the assay with CDK7/cyclinH/MAT1(h) it was 65%; in the assay with Ab1(H396P)(h) it was 101%. Moreover, the results for the “% activity” value with EphA1(h) and with EphA4(h) were 73% and 88%, respectively.

With KAFAKLAARLYRKALARQLGVAA [MMI-0400], the “% activity” value is 100% in the assay with GRK7(h); 63% in the assay with Itk(h); 46% in the assay with PKCτ(h); 94% with TSSK2(h); 47% with CDK7/cyclinH/MAT1(h); 105% in the assay with Ab1(H396P)(h). Besides, the “% activity” value amounted to 61% with EphA1(h) and 65% with EphA4(h).
